# Data taken from patent US10098967B2, “Self-assembly of therapeutic agent-peptide nanostructures” (Ohio State Innovation Foundation, priority 2012, dated 2018).
# Counter-ions that a name gives are not always drawn. Peptide text beside a SMILES is read from it. * marks the point of attachment. Succinyl(20-O-(20S)-CPT) = CC[C@@]1(OC(=O)CCC(=O)*)C(=O)OCc2c1cc1n(c2=O)Cc2cc3ccccc3nc2-1; Fmoc = O=C(OCC1c2ccccc2-c2ccccc21)*
# Experiments:
# [1] = Solubility in PBS and water; format: physicochemical; conditions: for solubility in water: pure water (H2O)
# Experimental: Three CPT-tetrapeptide (KFKK (SEQ ID NO:6)) conjugates were prepared that have alternating hydrophobic and hydrophilic sequence similar to the dipeptide derivatives with one additional lysine bearing a charged free amine. Compound E, F, and G were soluble in both H2O and PBS but as hydrophobicity decreased by changing the N-termini from -Fmoc to —NH2, solubility in both solutions increased.
# HT-29 cells [2] = test: Flow cytometry of cellular uptake as a function of time; format: cell-based, human; conditions: as a function of incubation time
# Experimental: To quantify the cellular uptake as a function of time, flow cytometry was conducted by monitoring the CPT dipetides at a wavelength of 420-470 nm after 335 nm excitation. […] An analogous flow cytometry study was performed with A549 cells, and similar results and trends were observed.
# [3] = Hydrolytic (lactone) stability in PBS by HPLC; format: physicochemical; conditions: for lactone form present after 7 days: stored at 10 mM
# Experimental: The hydrolytic stability of C and D was measured by HPLC in PBS at 37° C. over a week as a function of concentration. […] The stability of the lactone depended strongly on the concentration (FIG. 11(A)). For example, the amount of lactone remaining after 7 days decreased from 91 to 30% for C upon changing the concentration from 10 to 0.2 mM). This progression is consistent with the non-covalent nature of the nanotube structures, which depend on concentration. However, even at 0.2 mM in PBS, 80% of the lactone remained after 24 h, in contrast to CPT, of which 17% of its structure was in the lactone form after 24 h under these conditions.
# [4] = test system: mesothelioma tumor xenografts; test: Mesothelioma (MSTO) tumor xenograft model in mice; format: in vivo; conditions: for Deaths from Tumor Burden: MSTO model, mice, weekly
# Experimental: (§1) NH2—KK(CPT)-NH2 (D) was evaluated for efficacy in treating Lewis Lung Carcinoma (LLC) and mesothelioma tumor xenografts in mice. Animals were first injected with tumor cells either into the flank (LLC model; FIG. 12) or peritoneum (mesothelioma model; Table 2)), and allowed to develop small tumors. The animals were subsequently administered weekly either intravenous or intraperitoneal drugs or saline (negative control), and monitored for tumor burden and body weight over several weeks. […] But these initial studies were extremely limited in scope, only testing one of 15-20 structures that have been created. This lower efficacy is most likely due to reduced mobility of the 1D nanotubes within tissue, a property that can be beneficially exploited to increase the retention of drug within tumors by allowing the assembly process to respond structurally in the environment of the tumor cells.
# [5] = test system: Lewis Lung Carcinoma (LLC); test: Lewis Lung Carcinoma (LLC) flank tumor model in mice; format: in vivo; conditions: tumor cells into the flank, weekly intravenous or intraperitoneal
# Experimental: as §1
# HT-29 cells [6] = test: In vitro cell assay, HT-29 viability by MTS colorimetric assay; format: cell-based, human; conditions: HT-29, 4 days growth after exposure, conjugates prepared at 10 mM in PBS, aged 3 days
# Experimental: The conjugates discussed in Examples 1 and 2 were tested for efficacy against killing human colorectal cancer cells in an in vitro cell assay. HT-29 cells were plated into 96-well tissue culture plates, at a density of 5,000 cells/well, and allowed to grow overnight. The conjugates were previously prepared at 10 mM in sterile PBS and allowed to age 3 days, while all other Camptothecin drugs were prepared fresh for each experiment/replicate. Irinotecan HCl was dissolved in pH-neutral, sterile-filtered water, and S-Camptothecin and 10-hydroxycamptothecin were dissolved in DMSO due to solubility issues. Further dilutions of all drugs, both Camptothecin-peptides and free Camptothecin derivatives, were performed in cell culture medium. The cells were then exposed to serial dilutions containing the drugs or cell culture medium alone for the control. A peptide derivative was prepared without Camptothecin to serve as a control to test for toxicity of the peptides themselves, and was also tested in this assay. The cells were then allowed to grow for a further 4 days before being assessed for viability using an MTS colorimetric assay.
# [7] = Lactone stability in human serum (HS) by HPLC
# Experimental: FIG. 11 (A) is a graph showing lactone stability of CPT-dipeptides Ac-KK(CPT)-NH2 (C), and NH2—KK(CPT)-NH2 (D) in human serum (HS) at 37° C. (pH 7.4) at 1 and 10 mM, as monitored by HPLC. […] Samples were prepared at 10 mM in PBS and subsequently diluted to 1 mM in HS after 24 h.
smiles,measurement,setting,value
"CC[C@@]1(OC(=O)CCC(=O)NCCCC[C@H](NC(=O)[C@H](CCCCN)NC(=O)OCC2c3ccccc3-c3ccccc32)C(N)=O)C(=O)OCc2c1cc1n(c2=O)Cc2cc3ccccc3nc2-1 [Compound B, Fmoc-KK(CPT)-NH2]",solubility in PBS,[1],poor solubility
"CC[C@@]1(OC(=O)CCC(=O)NCCCC[C@H](NC(=O)[C@@H](N)CCCCN)C(N)=O)C(=O)OCc2c1cc1n(c2=O)Cc2cc3ccccc3nc2-1 [D, NH2—KK(CPT)-NH2]","cellular uptake (fluorescence, 420-470 nm after 335 nm excitation)",HT-29 cells [2],slightly higher than that of C
same,lactone form present after 7 days,[3]; 37° C.,71%
same,Deaths from Tumor Burden,[4]; 5 mg/kg,2/5
same,Deaths from Tumor Burden,[4]; 15 mg/kg,2/5
same,in vivo efficacy (tumor burden),"[4]; mesothelioma model, tumor cells into the peritoneum, weekly intravenous or intraperitoneal",lower in vivo efficacy
same,in vivo efficacy (tumor burden),[5],lower in vivo efficacy
same,solubility in PBS,[1],limited solubility
"CC[C@@]1(OC(=O)CCC(=O)NCCCC[C@H](NC(=O)[C@H](CCCCNC(C)=O)NC(=O)OCC2c3ccccc3-c3ccccc32)C(N)=O)C(=O)OCc2c1cc1n(c2=O)Cc2cc3ccccc3nc2-1 [A, Fmoc-K(Ac)K(CPT)-NH2]",solubility in water,[1],poor solubility
"CC[C@@]1(OC(=O)CCC(=O)NCCCC[C@H](NC(=O)[C@H](CCCCN)NC(=O)[C@H](Cc2ccccc2)NC(=O)[C@H](CCCCN)NC(C)=O)C(N)=O)C(=O)OCc2c1cc1n(c2=O)Cc2cc3ccccc3nc2-1 [Compound F, Ac-KFKK(CPT)-NH2] (Ac-KFKK(Succinyl(20-O-(20S)-CPT))-NH2)",solubility in PBS,[1],soluble
same,precipitation in PBS at 10 mM,[1],remained highly soluble
same,solubility in water,[1],soluble
"CC[C@@]1(OC(=O)CCC(=O)NCCCC[C@H](NC(=O)[C@H](CCCCN)NC(=O)[C@H](Cc2ccccc2)NC(=O)[C@H](CCCCN)NC(=O)OCC2c3ccccc3-c3ccccc32)C(N)=O)C(=O)OCc2c1cc1n(c2=O)Cc2cc3ccccc3nc2-1 [Compound E, Fmoc-KFKK(CPT)-NH2] (Fmoc-KFKK(Succinyl(20-O-(20S)-CPT))-NH2; N-terminus and C-terminus assumed)",solubility in PBS,[1],soluble
same,solubility in water,[1],soluble
"CC[C@@]1(OC(=O)CCC(=O)NCCCC[C@H](NC(=O)[C@H](CCCCN)NC(=O)[C@H](Cc2ccccc2)NC(=O)[C@@H](N)CCCCN)C(N)=O)C(=O)OCc2c1cc1n(c2=O)Cc2cc3ccccc3nc2-1 [G, NH2—KFKK(CPT)-NH2] (H-KFKK(Succinyl(20-O-(20S)-CPT))-NH2)",solubility in PBS,[1],soluble
same,precipitation in PBS at 10 mM,[1],remained highly soluble
same,solubility in water,[1],soluble
"CCc1c2c(nc3ccc(OC(=O)N4CCC(N5CCCCC5)CC4)cc13)-c1cc3c(c(=O)n1C2)COC(=O)[C@]3(O)CC [Irinotecan HCl, reference compound]",potency in killing human colorectal cancer cells (viability),HT-29 cells [6],the least potent
same,"cellular uptake (fluorescence, 420-470 nm after 335 nm excitation)",HT-29 cells [2],highest fluorescence
same,Deaths from Tumor Burden,[4]; 100 mg/kg,0/5
"CC[C@@]1(OC(=O)CCC(=O)NCCCC[C@H](NC(=O)[C@H](CCCCN)NC(C)=O)C(N)=O)C(=O)OCc2c1cc1n(c2=O)Cc2cc3ccccc3nc2-1 [C, Ac-KK(CPT)-NH2]",lactone remaining after 24 h,"[3]; 37° C., 0.2 mM",80%
same,lactone remaining after 7 days,"[3]; 37° C., 0.2 mM",30%
same,lactone form present after 7 days,[3]; 37° C.,91%
same,lactone stability after dilution to 1 mM,[7],significantly greater stability than D
"CC[C@@]1(O)C(=O)OCc2c1cc1n(c2=O)Cc2cc3ccccc3nc2-1 [CPT, Camptothecin, reference compound]",time to hydrolysis to the inactive carboxylate form,[3],within hours
same,lactone remaining after 24 h,"[3]; 37° C., 0.2 mM",17%
same,Deaths from Tumor Burden,[4]; 5 mg/kg,0/5
